{"source": "patent US20240100152A1", "about": "(UNIVERSITY OF PITTSBURGH OF THE COMMONWEALTH SYSTEM OF …, published 2024)", "binders": {"B1": {"name": "α-bungarotoxin Alexa Fluor 594 conjugate (ligand)", "chain": "IVCHTTATSPISAVTCPPGENLCYRKMWCDAFCSSRGKVVELGCAATCPSKKPYEEVTCCSTDKCNPHPKQRPG"}}, "target": "T1, human α7 nicotinic acetylcholine receptor (α7nAChR) expressed on HEK293T/17 cells (human, UniProt P36544 23-502)", "T1 construct": "whole, on cells", "T1 sequence (P36544 23-502)": "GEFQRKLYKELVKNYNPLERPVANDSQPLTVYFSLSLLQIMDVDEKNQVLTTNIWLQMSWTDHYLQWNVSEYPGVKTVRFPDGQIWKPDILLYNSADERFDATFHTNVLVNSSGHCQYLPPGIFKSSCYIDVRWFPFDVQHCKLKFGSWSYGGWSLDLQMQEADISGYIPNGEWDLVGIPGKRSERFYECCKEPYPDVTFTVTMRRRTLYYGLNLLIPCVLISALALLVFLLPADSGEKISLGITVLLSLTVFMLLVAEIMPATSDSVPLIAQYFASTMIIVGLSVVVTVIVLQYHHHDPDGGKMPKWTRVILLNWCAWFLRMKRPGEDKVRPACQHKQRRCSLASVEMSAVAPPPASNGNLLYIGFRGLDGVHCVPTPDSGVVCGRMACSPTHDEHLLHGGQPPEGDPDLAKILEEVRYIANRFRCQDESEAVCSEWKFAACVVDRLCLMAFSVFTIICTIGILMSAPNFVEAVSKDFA", "experiment": "live-cell fluorescent labeling of transfected HEK293 cells", "data": [{"binder": "B1", "values": [{"measurement": "binding result", "value": "binds"}]}]}
